In data set [1] the target is Lys6-linked diubiquitin, P0CG48.
Data set [2] deals with Lys29-linked diubiquitin, P0CG48.
In data set [3] the target is Lys63-linked diubiquitin (enzymatically assembled), P0CG48.
Lys63-linked diubiquitin (enzymatically assembled), P0CG48, sequence (P0CG48 whole entry, looked up): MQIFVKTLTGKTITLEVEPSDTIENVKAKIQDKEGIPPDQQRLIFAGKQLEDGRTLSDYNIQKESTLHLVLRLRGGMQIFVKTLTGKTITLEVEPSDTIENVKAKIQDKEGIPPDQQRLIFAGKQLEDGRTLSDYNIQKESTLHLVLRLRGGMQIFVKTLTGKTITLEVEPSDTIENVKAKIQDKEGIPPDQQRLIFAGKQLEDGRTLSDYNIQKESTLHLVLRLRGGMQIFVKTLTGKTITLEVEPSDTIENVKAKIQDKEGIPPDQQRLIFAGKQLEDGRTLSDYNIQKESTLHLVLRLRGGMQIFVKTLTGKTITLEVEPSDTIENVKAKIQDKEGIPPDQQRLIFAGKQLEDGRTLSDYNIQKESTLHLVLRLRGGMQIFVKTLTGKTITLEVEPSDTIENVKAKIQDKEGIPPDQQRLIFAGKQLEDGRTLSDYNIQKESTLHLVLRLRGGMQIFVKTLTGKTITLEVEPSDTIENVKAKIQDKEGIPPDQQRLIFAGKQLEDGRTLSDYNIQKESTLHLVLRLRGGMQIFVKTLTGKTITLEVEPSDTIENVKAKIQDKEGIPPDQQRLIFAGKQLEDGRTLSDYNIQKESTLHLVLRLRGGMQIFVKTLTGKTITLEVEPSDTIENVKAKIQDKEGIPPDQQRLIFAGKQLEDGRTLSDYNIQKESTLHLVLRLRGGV

Lys29-linked diubiquitin, P0CG48, sequence (P0CG48 whole entry, looked up): as above
Lys6-linked diubiquitin, P0CG48, sequence (P0CG48 whole entry, looked up): as above

B1: BAP1 (protein)
chain: MNKGWLELESDPGLFTLLVEDFGVKGVQVEEIYDLQSKCQGPVYGFIFLFKWIEERRSRRKVSTLVDDTSVIDDDIVNNMFFAHQLIPNSCATHALLSVLLNCSSVDLGPTLSRMKDFTKGFSPESKGYAIGNAPELAKAHNSHARPEPRHLPEKQNGLSAVRTMEAFHFVSYVPITGRLFELDGLKVYPIDHGPWGEDEEWTDKARRVIMERIGLATAGEPYHDIRFNLMAVVPDRRIKYEARLHVLKVNRQTVLEALQQLIRVTQPELIQTHKSQESQLPEESKSASNKSPLVLEANRAPAASEGNHTDGAEEAAGSCAQAPSHSPPNKPKLVVKPPGSSLNGVHPNPTPIVQRLPAFLDNHNYAKSPMQEEEDLAAGVGRSRVPVRPPQQYSDDEDDYEDDEEDDVQNTNSALRYKGKGTGKPGALSGSADGQLSVLQPNTINVLAEKLKESQKDLSIPLSIKTSSGAGSPAVAVPTHSQPSPTPSNESTDTASEIGSAFNSPLRSPIRSANPTRPSSPVTSHISKVLFGEDDSLLRVDCIRYNRAVRDLGPVISTGLLHLAEDGVLSPLALTEGGKGSSPSIRPIQGSQGSSSPVEKEVVEATDSREKTGMVRPGEPLSGEKYSPKELLALLKCVEAEIANYEACLKEEVEKRKKFKIDDQRRTHNYDEFICTFISMLAQEGMLANLVEQNISVRRRQGVSIGRLHKQRKPDRRKRSRPYKAKRQ
B1: the “cleavage in in vitro deubiquitinase assay (SDS-PAGE, silver stain)” value (shortened to “cleavage”) in data set [1] and in data set [2] was “failed to cleave” in each case.

B2: AMSH (protein)
chain: MSDHGDVSLPPEDRVRALSQLGSAVEVNEDIPPRRYFRSGVEIIRMASIYSEEGNIEHAFILYNKYITLFIEKLPKHRDYKSAVIPEKKDTVKKLKEIAFPKAEELKAELLKRYTKEYTEYNEEKKKEAEELARNMAIQQELEKEKQRVAQQKQQQLEQEQFHAFEEMIRNQELEKERLKIVQEFGKVDPGLGGPLVPDLEKPSLDVFPTLTVSSIQPSDCHTTVRPAKPPVVDRSLKPGALSNSESIPTIDGLRHVVVPGRLCPQFLQLASANTARGVETCGILCGKLMRNEFTITHVLIPKQSAGSDYCNTENEEELFLIQDQQGLITLGWIHTHPTQTAFLSSVDLHTHCSYQMMLPESVAIVCSPKFQETGFFKLTDHGLEEISSCRQKGFHPHSKDPPLFCSCSHVTVVDRAVTITDLR
For B2, the “cleavage” value is “inactive against Lys6- and Lys29-linked diubiquitin” in data set [1]; “inactive against Lys6- and Lys29-linked diubiquitin” in data set [2]; “cleaves Lys63-linked diubiquitin under identical reaction conditions with high activity” in data set [3].

B3: USP21 (protein)
chain: SDDKMAHHTLLLGSGHVGLRNLGNTCFLNAVLQCLSSTRPLRDFCLRRDFRQEVPGGGRAQELTEAFADVIGALWHPDSCEAVNPTRFRAVFQKYVPSFSGYSQQDAQEFLKLLMERLHLEINRRGRRAPPILANGPVPSPPRRGGALLEEPELSDDDRANLMWKRYLEREDSKIVDLFVGQLKSCLKCQACGYRSTTFEVFCDLSLPIPKKGFAGGKVSLRDCFNLFTKEEELESENAPVCDRCRQKTRSTKKLTVQRFPRILVLHLNRFSASRGSIKKSSVGVDFPLQRLSLGDFASDKAGSPVYQLYALCNHSGSVHYGHYTALCRCQTGWHVYNDSRVSPVSENQVASSEGYVLFYQLMQEPPRCL
In the case of B3, the “cleavage” value in data set [1], in data set [2] and in data set [3] was “rapidly cleaves all chain types tested” each time.

B4: A20 (protein)
chain: MAEQVLPQALYLSNMRKAVKIRERTPEDIFKPTNGIIHHFKTMHRYTLEMFRTCQFCPQFREIIHKALIDRNIQATLESQKKLNWCREVRKLVALKTNGDGNCLMHATSQYMWGVQDTDLVLRKALFSTLKETDTRNFKFRWQLESLKSQEFVETGLCYDTRNWNDEWDNLIKMASTDTPMARSGLQYNSLEEIHIFVLCNILRRPIIVISDKMLRSLESGSNFAPLKVGGIYLPLHWPAQECYRYPIVLGYDSHHFVPLVTLKDSGPEIRAVPLVNRDRGRFEDLKVHFLTDPENEMKEKLLKEYLMVIEIPVQGWDHGTTHLINAAKLDEANLPKEINLVDDYFELVQHEYKKWQENSEQGRRE
Consider B4, for which the “cleavage” value in data set [1] was “did not cleave Lys6-linked diubiquitin”; in data set [2], “also did not cleave Lys29 linkages”.

B5: CYLD (protein)
chain: GLEIMIGKKKGIQGHYNSCYLDSTLFCLFAFSSVLDTVLLRPKEKNDVEYYSETQELLRTEIVNPLRIYGYVCATKIMKLRKILEKVEAASGFTSEEKDPEEFLNILFHHILRVEPLLKIRSAGQKVQDCYFYQIFMEKNEKVGVPTIQQLLEWSFINSNLKFAEAPSCLIIQMPRFGKDFKLFKKIFPSLELNITDLLEDTPRQCRICGGLAMYECRECYDDPDISAGKIKQFCKTCNTQVHLHPKRLNHKYNPVSLPKDLPDWDWRHGCIPCQNMELFAVLCIETSHYVAFVKYGKDDSAWLFFDSMADRDGGQNGFNIPQVTPCPEVGEYLKMSLEDLHSLDSRRIQGCARRLLCDAYMCMYQSPTMSLYK
For the protein B5, the “cleavage” value was “shows little or no activity against the Lys6 and Lys29 linkage” in data set [1]; “shows little or no activity against the Lys6 and Lys29 linkage” in data set [2]; “efficiently cleaves its preferred Lys63 linkage” in data set [3].

B6: USP5 (protein)
chain: MAELSEEALLSVLPTIRVPKAGDRVHKDECAFSFDTPESEGGLYICMNTFLGFGKQYVERHFNKTGQRVYLHLRRTRRPKEEDPATGTGDPPRKKPTRLAIGVEGGFDLSEEKFELDEDVKIVILPDYLEIARDGLGGLPDIVRDRVTSAVEALLSADSASRKQEVQAWDGEVRQVSKHAFSLKQLDNPARIPPCGWKCSKCDMRENLWLNLTDGSILCGRRYFDGSGGNNHAVEHYRETGYPLAVKLGTITPDGADVYSYDEDDMVLDPSLAEHLSHFGIDMLKMQKTDKTMTELEIDMNQRIGEWELIQESGVPLKPLFGPGYTGIRNLGNSCYLNSVVQVLFSIPDFQRKYVDKLEKIFQNAPTDPTQDFSTQVAKLGHGLLSGEYSKPVPESGDGERVPEQKEVQDGIAPRMFKALIGKGHPEFSTNRQQDAQEFFLHLINMVERNCRSSENPNEVFRFLVEEKIKCLATEKVKYTQRVDYIMQLPVPMDAALNKEELLEYEEKKRQAEEEKMALPELVRAQVPFSSCLEAYGAPEQVDDFWSTALQAKSVAVKTTRFASFPDYLVIQIKKFTFGLDWVPKKLDVSIEMPEELDISQLRGTGLQPGEEELPDIAPPLVTPDEPKGSLGFYGNEDEDSFCSPHFSSPTSPMLDESVIIQLVEMGFPMDACRKAVYYTGNSGAEAAMNWVMSHMDDPDFANPLILPGSSGPGSTSAAADPPPEDCVTTIVSMGFSRDQALKALRATNNSLERAVDWIFSHIDDLDAEAAMDISEGRSAADSISESVPVGPKVRDGPGKYQLFAFISHMGTSTMCGHYVCHIKKEGRWVIYNDQKVCASEKPPKDLGYIYFYQRVAS
With B6, the “cleavage” value in data set [1], in data set [2] and in data set [3] was “rapidly cleaves all chains types tested” each time.

B7: Cezanne (protein)
chain: PPSFSEGSGGSRTPEKGFSDREPTRPPRPILQRQDDIVQEKRLSRGISHASSSIVSLARSHVSSNGGGGGSNEHPLEMPICAFQLPDLTVYNEDFRSFIERDLIEQSMLVALEQAGRLNWWVSVDPTSQRLLPLATTGDGNCLLHAASLGMWGFHDRDLMLRKALYALMEKGVEKEALKRRWRWQQTQQNKESGLVYTEDEWQKEWNELIKLASSEPRMHLGTNGANCGGVESSEEPVYESLEEFHVFVLAHVLRRPIVVVADTMLRDSGGEAFAPIPFGGIYLPLEVPASQCHRSPLVLAYDQAHFSALVSMEQKENTKEQAVIPLTDSEYKLLPLHFAVDPGKGWEWGKDDSDNVRLASVILSLEVKLHLLHSYMNVKWIPLSSDAQAPLAQ
As for B7, the “cleavage” value in data set [1] is on record as “did not cleave Lys6-linked diubiquitin”; in data set [2], “also did not cleave Lys29 linkages”.

B8: TRABID (protein)
chain: LEVDFKKLKQIKNRMKKTDWLFLNACVGVVEGDLAAIEAYKSSGGDIARQLTADEVRLLNRPSAFDVGYTLVHLAIRFQRQDMLAILLTEVSQQAAKCIPAMVCPELTEQIRREIAASLHQRKGDFACYFLTDLVTFTLPADIEDLPPTVQEKLFDEVLDRDVQKELEEESPIINWSLELATRLDSRLYALWNRTAGDCLLDSVLQATWGIYDKDSVLRKALHDSLHDCSHWFYTRWKDWESWYSQSFGLHFSLREEQWQEDWAFILSLASQPGASLEQTHIFVLAHILRRPIIVYGVKYYKSFRGETLGYTRFQGVYLPLLWEQSFCWKSPIALGYTRGHFSALVAMENDGYGNRGAGANLNTDDDVTITFLPLVDSERKLLHVHFLSAQELGNEEQQEKLLREWLDCCVTEGGVLVAMQKSSRRRNHPLVTQMVEKWLDRYRQIRPCTSLS
On to B8, for which the “cleavage” value in data set [1] was “did not cleave Lys6-linked diubiquitin”. In data set [2], the “cleavage” value is “cleaves Lys29 linkages more rapidly than Lys63 linkages”; the “fold better substrate than Lys63-linked diubiquitin” value was 40-fold better substrate; the “specificity constant (kcat/Km), quantitative western blot” value was 1.0 (±0.2)×10^5 M^-1 s^-1. Moreover, in data set [3], the “cleavage” value is recorded as “cleaves Lys29 linkages more rapidly than Lys63 linkages”; the “specificity constant (kcat/Km), fluorescence anisotropy” value is on record as 1.7 (±2.0)×10^3 M^-1 s^-1; the “specificity constant (kcat/Km), quantitative western blot” value is 2.5 (±0.4)×10^3 M^-1 s^-1.

B9: ubiquitin C-terminal hydrolase-L3 (UCH-L3) (protein)
chain: MEGQRWLPLEANPEVTNQFLKQLGLHPNWQFVDVYGMDPELLSMVPRPVCAVLLLFPITEKYEVFRTEEEEKIKSQGQDVTSSVYFMKQTISNACGTIGLIHAIANNKDKMHFESGSTLKKFLEESVSMSPEERARYLENYDAIRVTHETSAHEGQTEAPSIDEKVDLHFIALVHVDGHLYELDGRKPFPINHGETSDETLLEDAIEVCKKFMERDPDELRFNAIALSAA
Consider B9, for which the “cleavage” value in data set [1] and in data set [2] was “failed to cleave” each time.

These data come from US20160304571.
